Assays:
[1] = biological target: DnaK (protein used for surface plasmon resonance) (Mycoplasma fermentans); test: SPR; BIAcore T100, 25°C, HBS-EP (10 mM HEPES, 150 mM NaCl, 0.05% surfactant P20, pH 7.4, 3 mM EDTA); DnaK (2274.9 RU) amine-coupled on CM5 chip, DnaK as analyte at 35 ul/min, 120 s association, 600 s dissociation; preliminary kinetic analysis; self-binding (homodimer by the paper's words)
[2] = biological target: DnaK (protein used for surface plasmon resonance) (Mycoplasma fermentans); test: SPR; BIAcore T100, 25°C, HBS-EP (10 mM HEPES, 150 mM NaCl, 0.05% surfactant P20, pH 7.4, 3 mM EDTA); DnaK (2220 RU) amine-coupled on CM5 chip, PARP1 as analyte at 35 ul/min, 250 s association, 600 s dissociation; preliminary kinetic analysis

Substance | Kd [1] [nM] | Kd [2] [nM]
DnaK (protein used for surface plasmon resonance) (natural protein) | 29.6 | 
PARP1 (protein used for surface plasmon resonance) (from UniProt P09874 1-1014) (natural protein) |  | 25

Reference: paper PMC9651203
